The target of experiment [1] is Cysteine-SpyCatcher.
Experiment [2] concerns the target Cysteine-SpyCatcher. In words: pull-down; Cys-SpyCatcher on magnetic beads (50 µl, 20 mg/ml) mixed with 500 µl crude leaf filtrate of plants expressing Mito-SpyTag; 30 min at 4 °C, mitochondria isolation buffer (30 mM MOPS pH 7.5, 0.3 M mannitol, 1 mM EDTA), three washes; mitochondria stained with MitoTracker Orange, read by CLSM and counted; wild type filtrate as control.

The target of experiment [3] is Cysteine-SpyCatcher. As to the kind of experiment: pull-down; Cys-SpyCatcher on magnetic beads (50 µl, 20 mg/ml) mixed with 200 µl crude leaf filtrate of plants expressing Plastid-SpyTag; 30 min at 4 °C, chloroplast isolation buffer (10 mM HEPES-KOH pH 7.0, 0.33 M sorbitol), three washes; chloroplasts on beads read by CLSM and counted; wild type filtrate as control.

For “Mito-SpyTag (NtHxk1-SpyTag) (from UniProt Q9SEK2 1-44)”, in experiment [1], the enrichment of mitochondrial fumarase activity in the bead fraction compared to the crude input fraction came to 5.4 fold. In addition, the percent of beads that carry a bound mitochondrion in experiment [2] is 31.1%.
For the substance Plastid-SpyTag (OEP7-SpyTag), the percent of beads that carry a chloroplast in experiment [3] was determined as 22.8%.

(Values after PMC7465787.)
